From US20260242735A1 (UNIVERSIT T BASEL, published 2026)

What was measured:
[1] = target: human CD33 L316A (human, UniProt P20138 18-364); experiment: flow cytometry, HEK293-T, alanine scan;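 further: transiently transfected HEK293-T cells expressing single alanine mutants of human CD33 (alanine residues changed to serine), antibody binding fluorescence minus background, relative to wild type CD33, mean of duplicates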
Experimental: (§1) An alanine scan on human CD33 was performed to the determine the residues on CD33 that are involved in binding to the antibodies investigated. […] Briefly, a mutation library of CD33 was created by high-throughput, site-directed mutagenesis. Each residue was individually mutated to alanine, with alanine codons mutated to serine. The mutant library was arrayed in 384-well microplates and transiently transfected into HEK293-T. Following transfection, cells were incubated with the indicated antibodies (IgG or Fab) at concentrations pre-determined using an independent immunofluorescence titration curve on wild type CD33. […] Binding of each antibody to each mutant clone was determined in duplicates. For each point, background fluorescence was subtracted from the raw data, which were then normalized to antibody reactivity with wild type CD33.
(§2) Critical residues for antibody binding (outlined in dark grey) were residues whose mutations led to a binding of the test Abs of less than 20%. Additional secondary residues (outlined in light grey) were identified that led to a binding of the test Abs of between 20 and 40% as compared to the wild type CD33.

[2] = target: human CD33 N297A (human, UniProt P20138 18-364); experiment: flow cytometry, HEK293-T, alanine scan;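 further: transiently transfected HEK293-T cells expressing single alanine mutants of human CD33 (alanine residues changed to serine), antibody binding fluorescence minus background, relative to wild type CD33, mean of duplicates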
Experimental: as §1, §2

[3] = target: human CD33 D335A (human, UniProt P20138 18-364); experiment: flow cytometry, HEK293-T, alanine scan;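 further: transiently transfected HEK293-T cells expressing single alanine mutants of human CD33 (alanine residues changed to serine), antibody binding fluorescence minus background, relative to wild type CD33, mean of duplicates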
Sequence of human CD33 D335A (P20138 18-364 D335A limits assumed): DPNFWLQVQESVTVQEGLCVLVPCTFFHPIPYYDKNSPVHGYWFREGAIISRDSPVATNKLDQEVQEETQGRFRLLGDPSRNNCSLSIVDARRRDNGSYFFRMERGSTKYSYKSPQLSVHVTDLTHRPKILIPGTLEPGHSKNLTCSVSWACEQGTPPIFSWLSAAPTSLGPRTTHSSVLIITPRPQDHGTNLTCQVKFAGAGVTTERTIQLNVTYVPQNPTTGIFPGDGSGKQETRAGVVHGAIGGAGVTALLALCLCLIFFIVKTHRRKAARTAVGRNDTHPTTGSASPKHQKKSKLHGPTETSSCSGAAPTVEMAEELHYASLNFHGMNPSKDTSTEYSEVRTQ
Experimental: as §1, §2

[4] = target: human CD33 E336A (human, UniProt P20138 18-364); experiment: flow cytometry, HEK293-T, alanine scan;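 further: transiently transfected HEK293-T cells expressing single alanine mutants of human CD33 (alanine residues changed to serine), antibody binding fluorescence minus background, relative to wild type CD33, mean of duplicates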
Sequence of human CD33 E336A (P20138 18-364 E336A limits assumed): as the sequence (P20138 18-364 D335A limits assumed) above, with A318D, E319A counted along it
Experimental: as §1, §2

[5] = target: human CD33 L271A (human, UniProt P20138 18-364); experiment: flow cytometry, HEK293-T, alanine scan
Experimental: as §1, §2

[6] = target: human CD33 G295A (human, UniProt P20138 18-364); experiment: flow cytometry, HEK293-T, alanine scan
Sequence of human CD33 G295A (P20138 18-364 G295A limits assumed): as the sequence (P20138 18-364 D335A limits assumed) above, with G278A, A318D counted along it
Experimental: as §1, §2

[7] = target: human CD33 A289S (human, UniProt P20138 18-364); experiment: flow cytometry, HEK293-T, alanine scan
Sequence of human CD33 A289S (P20138 18-364 A289S limits assumed): as the sequence (P20138 18-364 D335A limits assumed) above, with A272S, A318D counted along it
Experimental: as §1, §2

[8] = target: human CD33 Q311A (human, UniProt P20138 18-364); experiment: flow cytometry, HEK293-T, alanine scan
Sequence of human CD33 Q311A (P20138 18-364 Q311A limits assumed): as the sequence (P20138 18-364 D335A limits assumed) above, with Q294A, A318D counted along it
Experimental: as §1, §2

[9] = target: human CD33 A293S (human, UniProt P20138 18-364); experiment: flow cytometry, HEK293-T, alanine scan
Sequence of human CD33 A293S (P20138 18-364 A293S limits assumed): as the sequence (P20138 18-364 D335A limits assumed) above, with A276S, A318D counted along it
Experimental: as §1, §2

[10] = target: human CD33 W22G (human, UniProt P20138 18-364); experiment: flow cytometry, transfected cells
[11] = target: human CD33 W22S (human, UniProt P20138 18-364); experiment: flow cytometry, transfected cells
[12] = target: human CD33 K52D (human, UniProt P20138 18-364); experiment: flow cytometry, transfected cells
Sequence of human CD33 K52D (P20138 18-364 K52D limits assumed): as the sequence (P20138 18-364 D335A limits assumed) above, with K35D, A318D counted along it

[13] = target: human CD33 Y49P (human, UniProt P20138 18-364); experiment: flow cytometry, transfected cells
[14] = target: human CD33 Y50L (human, UniProt P20138 18-364); experiment: flow cytometry, transfected cells
[15] = target: human CD33 P48G (human, UniProt P20138 18-364); experiment: flow cytometry, transfected cells
Sequence of human CD33 P48G (P20138 18-364 P48G limits assumed): as the sequence (P20138 18-364 D335A limits assumed) above, with P31G, A318D counted along it

[16] = target: human CD33 Y50V (human, UniProt P20138 18-364); experiment: flow cytometry, transfected cells
[17] = target: human CD33 Y49C (human, UniProt P20138 18-364); experiment: flow cytometry, transfected cells
Sequence of human CD33 Y49C (P20138 18-364 Y49C limits assumed): as the sequence (P20138 18-364 D335A limits assumed) above, with Y32C, A318D counted along it

[18] = target: human CD33 I47P (human, UniProt P20138 18-364); experiment: flow cytometry, transfected cells
[19] = target: human CD33 Y50N (human, UniProt P20138 18-364); experiment: flow cytometry, transfected cells
Sequence of human CD33 Y50N (P20138 18-364 Y50N limits assumed): as the sequence (P20138 18-364 D335A limits assumed) above, with Y33N, A318D counted along it

[20] = target: human CD33 Y50H (human, UniProt P20138 18-364); experiment: flow cytometry, transfected cells
[21] = target: human CD33 P48Q (human, UniProt P20138 18-364); experiment: flow cytometry, transfected cells
Sequence of human CD33 P48Q (P20138 18-364 P48Q limits assumed): as the sequence (P20138 18-364 D335A limits assumed) above, with P31Q, A318D counted along it

[22] = target: human CD33 Y50Q (human, UniProt P20138 18-364); experiment: flow cytometry, transfected cells
Sequence of human CD33 Y50Q (P20138 18-364 Y50Q limits assumed): as the sequence (P20138 18-364 D335A limits assumed) above, with Y33Q, A318D counted along it

[23] = target: human CD33 Y50D (human, UniProt P20138 18-364); experiment: flow cytometry, transfected cells
[24] = target: human CD33 P48Y (human, UniProt P20138 18-364); experiment: flow cytometry, transfected cells
Sequence of human CD33 P48Y (P20138 18-364 P48Y limits assumed): as the sequence (P20138 18-364 D335A limits assumed) above, with P31Y, A318D counted along it

[25] = target: human CD33 Y50G (human, UniProt P20138 18-364); experiment: flow cytometry, transfected cells
Sequence of human CD33 Y50G (P20138 18-364 Y50G limits assumed): as the sequence (P20138 18-364 D335A limits assumed) above, with Y33G, A318D counted along it

[26] = target: human CD33 F21S (human, UniProt P20138 18-364); experiment: flow cytometry, transfected cells
[27] = target: human CD33 P46F (human, UniProt P20138 18-364); experiment: flow cytometry, transfected cells
[28] = target: human CD33 N20Q (human, UniProt P20138 18-364); experiment: flow cytometry, transfected cells
[29] = target: human CD33 N20T (human, UniProt P20138 18-364); experiment: flow cytometry, transfected cells
[30] = target: human CD33 N20W (human, UniProt P20138 18-364); experiment: flow cytometry, transfected cells
[31] = target: human CD33 F21V (human, UniProt P20138 18-364); experiment: flow cytometry, transfected cells
[32] = target: human CD33 N20E (human, UniProt P20138 18-364); experiment: flow cytometry, transfected cells
[33] = target: human CD33 F21L (human, UniProt P20138 18-364); experiment: flow cytometry, transfected cells
[34] = target: human CD33 P46H (human, UniProt P20138 18-364); experiment: flow cytometry, transfected cells
[35] = target: human CD33 P19D (human, UniProt P20138 18-364); experiment: flow cytometry, transfected cells
[36] = target: human CD33 P46R (human, UniProt P20138 18-364); experiment: flow cytometry, transfected cells
[37] = target: human CD33 F21I (human, UniProt P20138 18-364); experiment: flow cytometry, transfected cells
[38] = target: human CD33 N20Y (human, UniProt P20138 18-364); experiment: flow cytometry, transfected cells
[39] = target: human CD33 P46D (human, UniProt P20138 18-364); experiment: flow cytometry, transfected cells
[40] = target: human CD33 N20P (human, UniProt P20138 18-364); experiment: flow cytometry, transfected cells

Binder | Mean % WT Binding [1] [% WT binding] | Mean % WT Binding [2] [% WT binding] | Mean % WT Binding [3] [% WT binding] | Mean % WT Binding [4] [% WT binding] | Mean % WT Binding [5] [% WT binding] | Mean % WT Binding [6] [% WT binding] | Mean % WT Binding [7] [% WT binding] | Mean % WT Binding [8] [% WT binding] | Mean % WT Binding [9] [% WT binding] | binding result [12] | binding result [13] | binding result [14] | binding result [15] | binding result [16] | binding result [17] | binding result [19] | binding result [20] | binding result [21] | binding result [22] | binding result [23] | further results
Refmab #6 (antibody, V domains shown, The alanine scan used IgG or Fab) VH: QVQLQQPGAEVVKPGASVKMSCKASGYTFTSYYIHWIKQTPGQGLEWVGVIYPGNDDISYNQKFQGKATLTADKSSTTAYMQLSSLTSEDSAVYYCAREVRLRYFDVWGQGTTVTVSS VL: EIVLTQSPGSLAVSPGERVTMSCKSSQSVFFSSSQKNYLAWYQQIPGQSPRLLIYWASTRESGVPDRFTGSGSGTDFTLTISSVQPEDLAIYYCHQYLSSRTFGQGTKLEIK | 90.5 | 95.6 | 98.2 | 102 | 106 | 92.1 | 96 | 88.7 | 101 |  |  |  |  |  |  |  |  |  |  |  | 
Refmab #6 (antibody, human IgG1, V domains shown) VH: QVQLQQPGAEVVKPGASVKMSCKASGYTFTSYYIHWIKQTPGQGLEWVGVIYPGNDDISYNQKFQGKATLTADKSSTTAYMQLSSLTSEDSAVYYCAREVRLRYFDVWGQGTTVTVSS VL: EIVLTQSPGSLAVSPGERVTMSCKSSQSVFFSSSQKNYLAWYQQIPGQSPRLLIYWASTRESGVPDRFTGSGSGTDFTLTISSVQPEDLAIYYCHQYLSSRTFGQGTKLEIK |  |  |  |  |  |  |  |  |  |  |  |  |  |  |  |  |  |  |  |  | binding result [10]: no binding (tested: below 20%); binding result [11]: no binding (tested: below 20%)
Refmab #5 (antibody, V domains shown, The alanine scan used IgG or Fab) VH: QVQLVQSGAEVKKPGASVKVSCKASGYTFTNYDINWVRQAPGQGLEWIGWIYPGDGSTKYNEKFKAKATLTADTSTSTAYMELRSLRSDDTAVYYCASGYEDAMDYWGQGTTVTVSS VL: DIQMTQSPSSLSASVGDRVTINCKASQDINSYLSWFQQKPGKAPKTLIYRANRLVDGVPSRFSGSGSGQDYTLTISSLQPEDFATYYCLQYDEFPLTFGGGTKVEIK | 79.5 | 83.7 | 86.2 | 90.5 | 84.9 | 101 | 91.8 | 126 | 87.7 |  |  |  |  |  |  |  |  |  |  |  | 
Refmab #5 (antibody, human IgG1, V domains shown) VH: QVQLVQSGAEVKKPGASVKVSCKASGYTFTNYDINWVRQAPGQGLEWIGWIYPGDGSTKYNEKFKAKATLTADTSTSTAYMELRSLRSDDTAVYYCASGYEDAMDYWGQGTTVTVSS VL: DIQMTQSPSSLSASVGDRVTINCKASQDINSYLSWFQQKPGKAPKTLIYRANRLVDGVPSRFSGSGSGQDYTLTISSLQPEDFATYYCLQYDEFPLTFGGGTKVEIK |  |  |  |  |  |  |  |  |  | no binding (tested: below 20%) | no binding (tested: below 20%) | no binding (tested: below 20%) | no binding (tested: below 20%) | no binding (tested: below 20%) | no binding (tested: below 20%) | no binding (tested: below 20%) | no binding (tested: below 20%) | no binding (tested: below 20%) | no binding (tested: below 20%) | no binding (tested: below 20%) | binding result [18]: no binding (tested: below 20%); binding result [24]: no binding (tested: below 20%); binding result [25]: no binding (tested: below 20%)
Refmab #1 (antibody, human IgG1, V domains shown, also called hP67.6; Absolute Antibody Cat. No. Ab00283-10.0) VH: EVQLVQSGAEVKKPGSSVKVSCKASGYTITDSNIHWVRQAPGQSLEWIGYIYPYNGGTDYNQKFKNRATLTVDNPTNTAYMELSSLRSEDTAFYYCVNGNPWLAYWGQGTLVTVSS VL: DIQLTQSPSTLSASVGDRVTITCRASESLDNYGIRFLTWFQQKPGKAPKLLMYAASNQGSGVPSRFSGSGSGTEFTLTISSLQPDDFATYYCQQTKEVPWSFGQGTKVEVK |  |  |  |  |  |  |  |  |  |  |  |  |  |  |  |  |  |  |  |  | binding result [26]: no binding (tested: below 20%); binding result [27]: no binding (tested: below 20%); binding result [28]: no binding (tested: below 20%); binding result [29]: no binding (tested: below 20%); binding result [30]: no binding (tested: below 20%); binding result [31]: no binding (tested: below 20%); binding result [32]: no binding (tested: below 20%); binding result [33]: no binding (tested: below 20%); binding result [34]: no binding (tested: below 20%); binding result [35]: no binding (tested: below 20%); binding result [36]: no binding (tested: below 20%); binding result [37]: no binding (tested: below 20%); binding result [38]: no binding (tested: below 20%); binding result [39]: no binding (tested: below 20%); binding result [40]: no binding (tested: below 20%)
Refmab #4 (antibody, human IgG1, V domains shown) VH: QVQLVQSGAEVKKPGESVKVSCKASGYTFTNYGMNWVKQAPGQGLEWMGWINTYTGEPTYADKFQGRVTMTTDTSTSTAYMEIRNLGGDDTAVYYCARWSWSDGYYVYFDYWGQGTSVTVSS VL: DIVMTQSPDSLTVSLGERTTINCKSSQSVLDSSTNKNSLAWYQQKPGQPPKLLLSWASTRESGIPDRFSGSGSGTDFTLTIDSPQPEDSATYYCQQSAHFPITFGQGTRLEIK |  |  |  |  |  |  |  |  |  | no binding (tested: below 20%) | no binding (tested: below 20%) | no binding (tested: below 20%) | no binding (tested: below 20%) | no binding (tested: below 20%) | no binding (tested: below 20%) | no binding (tested: below 20%) | no binding (tested: below 20%) | no binding (tested: below 20%) | no binding (tested: below 20%) | no binding (tested: below 20%) | binding result [24]: no binding (tested: below 20%); binding result [25]: no binding (tested: below 20%)
